Experiments:
[1] = target: human SEZ6 on NTX tumor cells (human) (UniProt Q53EL9); assay: flow cytometry dot plot of LU64 NTX tumor cells, CD324 against MOPC isotype control
[2] = target: human SEZ6 on NTX tumor cells (human) (UniProt Q53EL9); assay: flow cytometry dot plot of LU86 NTX tumor cells, CD324 against MOPC isotype control
[3] = target: human SEZ6 on NTX tumor cells (human) (UniProt Q53EL9); assay: flow cytometry dot plot of LU117 NTX tumor cells, CD324 against MOPC isotype control

% of cells in the upper right quadrant (CD324+, MOPC+) [1]: 0.597%
% of cells in the lower right quadrant (CD324-, MOPC+) [2]: 0.014%
% of cells in the upper right quadrant (CD324+, MOPC+) [2]: 0.483%
% of cells in the upper right quadrant (CD324+, MOPC+) [3]: 0.347%
Substance: MOPC (antibody)
